Source: US20030040606A1 (SKYTECH TECHNOLOGY, published 2003)

Target: T1, CD22 on Raji cells (UniProt P20273 20-847, limits assumed)
T1 construct: whole, on cells
T1 sequence (looked up): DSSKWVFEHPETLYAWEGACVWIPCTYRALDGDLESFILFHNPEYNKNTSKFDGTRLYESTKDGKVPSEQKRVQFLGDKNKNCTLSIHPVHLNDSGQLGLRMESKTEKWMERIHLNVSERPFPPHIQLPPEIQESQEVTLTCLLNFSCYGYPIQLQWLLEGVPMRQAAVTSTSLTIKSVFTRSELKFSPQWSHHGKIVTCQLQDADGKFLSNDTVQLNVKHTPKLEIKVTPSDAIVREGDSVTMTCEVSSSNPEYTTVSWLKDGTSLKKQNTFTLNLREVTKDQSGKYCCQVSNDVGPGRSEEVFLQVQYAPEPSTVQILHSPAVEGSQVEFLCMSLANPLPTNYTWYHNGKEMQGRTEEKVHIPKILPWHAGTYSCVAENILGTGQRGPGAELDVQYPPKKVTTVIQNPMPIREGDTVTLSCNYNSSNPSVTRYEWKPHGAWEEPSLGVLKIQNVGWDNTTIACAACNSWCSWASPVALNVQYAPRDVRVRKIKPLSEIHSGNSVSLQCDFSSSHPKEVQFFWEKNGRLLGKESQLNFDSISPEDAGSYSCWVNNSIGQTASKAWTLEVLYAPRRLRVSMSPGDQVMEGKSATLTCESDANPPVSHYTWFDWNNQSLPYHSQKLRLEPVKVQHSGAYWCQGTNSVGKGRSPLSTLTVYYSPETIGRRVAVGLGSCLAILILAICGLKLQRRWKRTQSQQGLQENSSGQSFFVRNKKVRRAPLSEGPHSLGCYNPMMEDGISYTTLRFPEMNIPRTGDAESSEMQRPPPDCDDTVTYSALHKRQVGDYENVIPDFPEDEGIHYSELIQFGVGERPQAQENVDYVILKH
Assay: flow cytometry on Raji cells, 1 ug antibody, FITC goat anti-human IgG1 Fc detection
Protocol: The mixtures were incubated for 30 minutes at 4° C. and washed three times with PBS to remove unbound antibodies. The binding levels of the antibodies to Raji cells were assessed by the addition of a 20x diluted FITC-labeled, goat anti-human IgG1, Fc fragment-specific antibodies (Jackson ImmunoResearch, West Grove, Pa.) in a final volume of 100 μl in PBS-FA, and incubating for 30 minutes at 4° C.

B1: FR-patched anti-CD22 antibody hpRFB4 (antibody, human IgG1, V domains shown)
VH: EVQLLESGGGLVQPGGSLRLSCAASGFSFSIYDMSWVRQAPGKGLEWVAYISSGGGTTYYPDTVKGRFTISRDNAKNSLYLQMNSLRVEDTALYYCARHSGYGSSYGVLFAYWGQGTLVTVSS
VL: DIQMTQSPSSLSASVGDRVTISCRASQDISNYLNWYQQKPGKAPKLLIYYTSILHSGVPSRFSGSGSGTEFTLTISSLQPEDFATYFCQQGNTLPWTFGGGTKVEIK
notes: Expressed in Sp2/0 cells with a human IgG1 heavy chain constant region and a human kappa light chain constant region (vectors hpRFB4pSMh and hpRFB4pSMk); protein A purified; also called FR-patched antibody; FR-patched RFB4
B1: binds.
